From US20150346208A1 (SPRING BIOSCIENCE, published 2015)

What was measured:
[1] = biological target: T1, human PD-L1 (Programmed death ligand-1) (human, UniProt Q9NZQ7 19-290); test: IHC on FFPE placenta, 0.11-28 µg/ml
T1 construct: whole, on cells; Endogenous protein; For IHC it was in formalin-fixed, paraffin-embedded tissue sections; for the Western blot it was in SDS-PAGE-fractionated cell lysates (45-55 kDa band); also called B7-H1; PDCD1L1

[2] = biological target: T2, peptide immunogen CGIQDTNSKKQSDTHLEET (human PD-L1 aa 272-290) (human); test: ELISA, immobilized peptide immunogen (human PD-L1 aa272-290)
T2 construct: Synthetic peptide, immobilized in the ELISA; also called immobilized peptide immunogen; 19-amino acid peptide
T2 peptide: CGIQDTNSKKQSDTHLEET
Method: ELISA studies were performed with the SP263 antibody to evaluate binding to the immobilized peptide immunogen (human PD-L1 aa272-290).

[3] = biological target: T1, human PD-L1 (Programmed death ligand-1); test: IHC on FFPE placenta, 0.9 µg/ml
Method: Rabbit anti-human PD-L1 monoclonal antibodies SP263, J45H2L4 and J27H6L4 were applied onto formalin-fixed paraffin embedded (FFPE) tissue samples to assess the staining patterns of these antibodies. Tissue samples include placenta (positive control), stomach (negative control) and colon. Immunohistochemistry was performed on BenchMark Ultra (Ventana Medical System) using StdCC1 cell conditioning and standard Opt iView DAB detection protocol. Each primary antibody was incubated at 0.9 μg/ml for 16 min.

T1 sequence (Q9NZQ7 19-290): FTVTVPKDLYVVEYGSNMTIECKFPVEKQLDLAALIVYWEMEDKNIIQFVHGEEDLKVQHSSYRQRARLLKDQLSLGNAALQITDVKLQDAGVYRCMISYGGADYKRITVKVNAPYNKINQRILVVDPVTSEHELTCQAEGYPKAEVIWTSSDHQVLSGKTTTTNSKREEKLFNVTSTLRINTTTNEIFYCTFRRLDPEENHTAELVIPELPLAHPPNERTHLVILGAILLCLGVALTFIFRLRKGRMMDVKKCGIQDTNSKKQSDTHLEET

B1: SP263 rabbit anti-human PD-L1 monoclonal antibody (antibody, V domains shown)
VH: QSLEESGGRLVTPGTPLTLTCTASGFSLSNHAISWVRQAPGKGLEWIGTINSDTHTYYATWPKGRFTISKTSSTTVDLKMTSPTTEDTATYFCARRIFSSSNIWGPGTLVTVSS
VL: AIVMTQTSSPVSAVVGGTVAINCQASQSIYNNNWLSWFQQKPGQPPKLLIYLASTLASGVPSRFKGSGSGTQFTLTISDVVCDDAATYYCIGGESSNNDGIAFGGGTEVVVK
notes: the rabbit constant regions are not; also called SP263 anti-PD-L1 antibody
binding result [1]: binds
EC50 [2]: 0.015 nM

B2: J45H2L4 rabbit anti-human PD-L1 monoclonal antibody (antibody, V domains shown)
VH: QSLEESGGRLVTPGTPLTLTCTASGFSLSSNAISWVRQAPGKGLEWIGTINSDSHIYSATWAKGRFTISKTSTAVDLKMTSPTTEDTATYFCAGRLFSSTNIWGPGTLVTVSS
VL: VMTQTSSPVSAAVGGTVTINCQASQSIYKDNWLSWFQQKPGQPPKLLIYLASTLASGVPSRFKGSGSGTQFTLTISDVVCDDAATYYCLGGESSSDDGIAFGGGTEVVVK
notes: the rabbit constant regions are not; also called anti-PD-L1 antibody clone J45H2L4
binding result [3]: binds
